Laboratory results taken from article PMC7043342.

Assays:
[1] = target: SPD_1495 (33-442 AA), recombinant, GST tag removed (S. pneumoniae D39); assay: SPR; SPD_1495 (30 ug/ml) fixed on a NanoGold-COOH sensor chip by capture coupling; ComE^D58E injected at 100, 200, 400, 800 and 1,600 nmol/liter in 0.01 M PBS; Open-SPR (Nicoya), 25°C; association and dissociation 300 s each; one-to-one diffusion-corrected model, TraceDrawer
[2] = target: T1, SPD_1495 (Streptococcus pneumoniae D39) (UniProt A0A0H2ZL68); assay: EMSA
T1 sequence: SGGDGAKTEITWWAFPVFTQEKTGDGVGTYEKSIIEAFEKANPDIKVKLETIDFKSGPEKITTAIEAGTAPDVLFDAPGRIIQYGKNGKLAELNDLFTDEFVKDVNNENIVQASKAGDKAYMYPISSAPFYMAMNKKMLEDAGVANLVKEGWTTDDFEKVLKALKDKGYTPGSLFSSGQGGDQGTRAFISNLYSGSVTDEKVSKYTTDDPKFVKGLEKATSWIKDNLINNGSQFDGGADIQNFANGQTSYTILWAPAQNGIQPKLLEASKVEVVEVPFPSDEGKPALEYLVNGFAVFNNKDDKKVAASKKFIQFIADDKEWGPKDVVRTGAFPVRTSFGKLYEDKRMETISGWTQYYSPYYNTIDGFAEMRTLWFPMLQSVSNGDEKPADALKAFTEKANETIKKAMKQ

ComE^D58E, phosphomimetic mutant of the response regulator ComE (natural protein)
Kd [1]: 1550 nM

TACACATCTGCTTCTAAAATATTGTTAGAAAACGATTTGACTGTCCTGATCAATTTGTCATGTTCTTATTTCATTTTACTATATTTTTGGTTCGCGGGAAGTCTACTAAGATACTTAAAGATGCAGATAGTGAAAAAAGGTGTAGACATTACCGTAAAAAAGTGATATAATCGTAAGATGTTCAATGTATAGGTGTTAATCATGAGTAGACGTTTTAA (double strand) [Bio-cps (cps upstream promoter)]
binding [2]: no binding
